# According to US20210253737A1:
# Columns and labels:
# [1] = target: carboxymethyl lysine conjugated to keyhole limpet hemocyanin (CML-KLH); assay: direct binding ELISA, CML-KLH coat 1 µg/mL, antibody at 0.07 µg/mL
# [2] = target: carboxymethyl lysine conjugated to keyhole limpet hemocyanin (CML-KLH); assay: direct binding ELISA, CML-KLH coat 1 µg/mL, antibody at 1.85 µg/mL
# [3] = target: carboxymethyl lysine conjugated to keyhole limpet hemocyanin (CML-KLH); assay: direct binding ELISA, CML-KLH coat 1 µg/mL, antibody at 0.62 µg/mL
# [4] = target: carboxymethyl lysine conjugated to keyhole limpet hemocyanin (CML-KLH); assay: direct binding ELISA, CML-KLH coat 1 µg/mL, antibody at 50 µg/mL
# [5] = target: carboxymethyl lysine conjugated to keyhole limpet hemocyanin (CML-KLH); assay: direct binding ELISA, CML-KLH coat 1 µg/mL, antibody at 5.56 µg/mL
# [6] = target: carboxymethyl lysine conjugated to keyhole limpet hemocyanin (CML-KLH); assay: direct binding ELISA, CML-KLH coat 1 µg/mL, antibody at 0 µg/mL (buffer control well, background)
# [7] = target: carboxymethyl lysine conjugated to keyhole limpet hemocyanin (CML-KLH); assay: direct binding ELISA, CML-KLH coat 1 µg/mL, antibody at 16.67 µg/mL
# [8] = target: carboxymethyl lysine conjugated to keyhole limpet hemocyanin (CML-KLH); assay: direct binding ELISA, CML-KLH coat 1 µg/mL, antibody at 0.21 µg/mL
substance,measurement,setting,value
"carboxymethyl lysine MAb (Clone 318003), R&D Systems, Inc., catalog no. MAB3247 (antibody)",OD450,[1],0.086 OD450
same,OD450,[2],0.092 OD450
same,OD450,[3],0.083 OD450
same,OD450,[4],0.462 OD450
same,OD450,[5],0.165 OD450
same,OD450,[6],0.09 OD450
same,OD450,[7],0.312 OD450
same,OD450,[8],0.075 OD450
